Results taken from the DeepSol protein solubility set.

Test: soluble on expression in E. coli; label from the status in PepcDB or PDB records

Sequence	soluble on expression in E. coli
SMATPNQTACNAESPVALEEAKTSGAPGSPQTPPERHDSGGSLPLTPRMESHSEDEDLAGAVGGLGWNSRSPRTQSPGGCSAEAVLARKKHRRRPSKRKRHWRPYLELSWAEKQQRDERQSQRASRVREEMFAKGQPVAPYNTTQFLMNDRDPEEPNLDVPHGISHPGSSGESEAGDSDGRGRAHGEFQRKDFSETYERFHTESLQGRSKQELVRDYLELEKRLSQAEEETRRLQQLQACTGQQSCRQVEELAAEVQRLRTENQRLRQENQMWNREGCRCDEEPGT	soluble
SMGNPQLISAGAKFRAAVAAEQPLQVVGAITAYAAKMAEAVGFKAVYLSGGGVAANSLGIPDLGISTMDDVLVDANRITNATNLPLLVDIDTGWGGAFNIARTIRSFIKAGVGAVHLEDQVGQKRCGHRPGKECVPAGEMVDRIKAAVDARTDETFVIMARTDAAAAEGIDAAIERAIAYVEAGADMIFPEAMKTLDDYRRFKEAVKVPILANLTEFGSTPLFTLDELKGANVDIALYCCGAYRAMNKAALNFYETVRRDGTQKAAVPTMQTRAQLYDYLGYYAYEEKLDQLFNQGRN	soluble
SMGTKLKKSNNDITIFSENEYNEIVEMLRDYSNGDNLEFEVSFKNINYPNFMRITEHYINITPENKIESNNYLDISLIFPDKNVYRVSLFNQEQIGEFITKFSKASSNDISRYIVSLDPSDDIEIVYKNRGSGKLIGIDNWAITIKSTEEIPLVAGKSKISKPKITGSERIMYRYKTRYSFTINKNSRIDITDVKSSPIIWKLMTVPSNYELELELINKIDINTLESELLNVFMIIQD	soluble
SNAEKAVLIGEKEADITFVTWGSQKGPILDVIEDLKEEGISANLLYLKMFSPFPTEFVKNVLSSANLVIDVESNYTAQAAQMIKLYTGIDIKNKILKYNGRHMTEDEILKSAKEILNK	soluble
SNAEWESITPPVVDAPAVVEFFSFYCPPCYAFSQTMGVDQAIRHVLPQGSRMVKYHVSLLGPLGHELTRAWALAMVMKETDVIEKAFFTAGMVEKRLHSPDDVRRVFMSATGISRGEYDRSIKSPAVNDMVALQERLFKEYGVRGTPSVYVRGRYHINNAAFGAFSVENFRSRYAAVVRKLLAGNPDAD	soluble
SNAHKGTLYVVATPLGNLDDMTFRAVNTLRNAGAIACEDTRRTSILLKHFGIEGKRLVSYHSFNEERAVRQVIELLEEGSDVALVTDAGTPAISDPGYTMASAAHAAGLPVVPVPGA	soluble
SNAMEHKIVHVGDIPVANDKPFTLFAGMNVLESRDLAMQICEHYVKVTDKLGIPYVFKASFDKANRSSVHSYRGPGLEEGMKIFQELKETFGVKIITDVHTEAQAQPVADVVDVIQLPAFLARQTDLVEAMAKTGAVINVKKPQFMSPGQVGNIVEKFAECGNDKVILCERGSCHGYDNLVVDMLGFGVMKQASNGSPIIFDVTHSLQMRDPSGAASGGRREQTVELAKAGLATGIAGLFIEAHPNPDKARCDGPSALPLDKLEPFLAQMKALDDLIKSFAHIDIR	soluble
SNAMIYPYKEKKPKIASSAFIADYVTITGDVYVGEESSIWFNTVIRGDVSPTIIGDRVNVQDQCTLHQSPQYPLILEDDVTVGHQVILHSCHIKKDALIGMGSIILDGAEIGEGAFIGAGSLVSQGKKIPPNTLAFGRPAKVIRELTAEDRKDMERIRTQYVEKGQYYKSLQK	soluble
SNAMRKDETSNTSPDISVAQPASALRYHLRPPRRNDGAAIHQLVSECPPLDLNSLYAYLLLCEHHAHTCVVAESPGGRIDGFVSAYLLPTRPDVLFVWQVAVHSRARGHRLGRAMLGHILERQECRHVRHLETTVGPDNQASRRTFAGLAGERGAHVSEQPFFDRQAFGGADHDDEMLLRIGPFTHPPH	soluble
SNAMRNKNMSTIYQTSATASAGRNGVVSTEDKLLELNLSYPKEMGGSGTATNPEQLFAVGYAACFSNAILHVAREAKVALKEAPVTATVGIGPNGQGGFALSVALAAHIALEDEQARQLVTVAHQVCPYSNAVRGNIDVQVSVNGLAL	soluble
SNAMSLEKLDTNTFEQLIYDEGKACLVMFSRKNCHVCQKVTPVLEELRLNYEESFGFYYVDVEEEKTLFQRFSLKGVPQILYFKDGEYKGKMAGDVEDDEVEQMIADVLED	soluble
SNANVGVFVLMHGDSTASSMLKTAQELLGTSIGTAMNMPLTMEVQTMYEQLRNQVITQKESLNNGILLLTDMGSLNSFGNMLFEETGIRTKAITMTSTMIVLEAIRMASVGRSLEDIYQNIQLSFESVVREQFRSSLQK	soluble
SNASNAVKRKGVEVIIALDISNSMLAQDVQPSRLEKAKRLISRLVDELDNDKVGMIVFAGDAFTQLPITSDYISAKMFLESISPSLISKQGTAIGEAINLATRSFTPQEGVGRAIIVITDGENHEGGAVEAAKAAAEKGIQVSVLGVGMPEGAPIPVEGTNDYRRDREGNVIVTRLNEGMCQEIAKDGKGIYVRVDNSNSAQKAISQEISKMAKSDVE	soluble
SNRFIAVFSDITRHKQTEEDLLRSEQHYRLLHETMLQGVVYQDASGKIISMNPAAERILGKTPAEFLGSSSVGEEYLTIREDGSMFPGLEHPAMVSLRTGQKVQGVVMGVYNPRENFYRWININAVPIFRTGEDRPFQVYTLFDDI	not soluble
SNRLDGKVAIITGGTLGIGLAIATKFVEEGAKVMITDRHSDVGEKAAKSVGTPDQIQFFQHDSSDEDGWTKLFDATEKAFGPVSTLVNNAGIAVNKSVEETTTAEWRKLLAVNLDGVFFGTRLGIQRMKNKGLGASIINMSSIEGFVGDPSLGAYNASKGAVRIMSKSAALDCALKDYDVRVNTVHPGYIKTPLVDDLPGAEEAMSQRTKTPMGHIGEPNDIAYICVYLASNESKFATGSEFVVDGGYTAQ	soluble
SPEIMKNLSNNFGKAMDQCKDELSLPDSVVADLYNFWKDDYVMTDRLAGCAINCLATKLDVVDPDGNLHHGNAKDFAMKHGADETMAQQLVDIIHGCEKSAPPNDDKCMKTIDVAMCFKKEIHKLNWVPNMDLVIGEVLAEV	soluble
SPFDANKLYCSEVLAILLQDNDENRELLGELDGIDVLLQQLSVFKRHNPSTAEEQEMMENLFDSLCSCLMLSSNRERFLKGEGLQLMNLMLREKKISRSSALKVLDHAMIGPEGTDNCHKFVDILGLRTIFPLFMKSPRKIKKVGTTEKEHEEHVCSILASLLRNLRGQQRTRLLNKFTENDSEKVDRLMELHFKYLGAMQVADKKIEGEKHDMVRRGEIIDNDTEEEFYLRRLDAGLFVLQHICYIMAEICNANVPQIRQRVHQILNMRGSSIKIVRHIIKEYAENIGDGRSPEFRENEQKRILGLLENF	not soluble
SPLHWLQWERGGVGSDQDLGCHWLPLPTGSDGGDAVEYNPNLLDDPQWPCGKHKRVLIFASYMTTVIEYVKPADLKKDMNETFREKFPHIKLTLSKIRSLKREMRNLSEECSLEPVTVSMAYVYFEKLVLQGKLNKQNRKLCAGACVLLAAKISSDLRKSEVKQLIDKLEERFRFNRKDLIGFEFTVLVALELALYLPENQVLPHYRRLTQQF	not soluble
SPSAQELKEQGNRLFVGRKYPEAAACYGRAITRNPLVAVYYTNRALCYLKMQQPEQALADCRRALELDGQSVKAHFFLGQCQLEMESYDEAIANLQRAYSLAKEQRLNFGDDIPSALRIAKKKRWNSIEERRIHQESELHSYLTRLIAAERERELEECQRNHEGHEDDGHIRAQQACIEAKHDKYMADMDELFSQVDEKRKKRDIPDYLCGKISFELMREPCITPSGITYDRKDIEEHLQRVGHFNPVTRSPLTQEQLIPNLAMKEVIDAFISENGWVEDY	soluble
SPVYGVKAVPVERIRANSYNPNVTAPPEMRLLELSIWEDGYTMPCVCYYIEKEDVYELVDGYHRYKVMMTSPRIYKRENGLLPVTVIRKDLAERMASTIRHNRARGMHK	soluble
SQKLADFKLPQFFNYPPYFTLQPVRDTREKQIQLWKELILDYCKSQKIFLIGVEEDFPLFSNSAIDRSLSHEARETFLSAIVGEGRAEWLDKGHRKCLILWHRIQDWADIVLQFVRDNGLEDSVMTVEEIRSGTESLGTELQGIDRTILMRALKLLENKGKLALFKGTSADDEGVKFSV	soluble
SRLFDEVVKKELDEAALKGVILTDGELKPEEFSMHIAEQLRAGGPFGQAFPEPIFDGEFKVLHQKLVGEKHLKLMLEPLYKGHPTNVMIDGIAFNVDLRRWPDASVKTVRLAYKLDVNEFRGNQSLQLMIDHIEAK	not soluble
SRLITHNMLSCNIKGVTSGFPLRIEAGNVIEKEVDFNPDFIRHMFAKIEWKALVEGARSMGYAELPEESPDAAVLKSDEPFLKKLHHALLELHLEEGALVCPETGRKFPVNKGIPNMLLHEDEV	soluble
SRRRPLSCDAASQAGSNYPRCWNCGGPWGPGREDRFFCPQCRALQAPDPTRDYFSLMDCNRSFRVDTAKLQHRYQQLQRLVHPDFFSQRSQTEKDFSEKHSTLVNDAYKTLLAPLSRGLYLLKLHGIEIPERTDYEMDRQFLIEIMEINEKLAEAESEAAMKEIESIVKAKQKEFTDNVSSAFEQDDFEEAKEILTKMRYFSNIEEKIKLKKIPL	soluble
SSPSSPADWAKKLTDAVLRQKAGETLTAADRDFSNADFRNITFSKILPPSFMERDGDIIKGFNFSNSKFTYSDISHLHFDECRFTYSTLSDVVCSNTKFSNSDMNEVFLQYSITTQQQPSFIDTTLKNTLIRHKANLSGVILNEPDNSSPPSVSGGGNFIRLGDIWLQMPLLWTENAVDGFLNHEHNNGKSILMTIDSLPDKYSQEKVQAMEDLVKSLRGGRLTEACIRPVESSLVSVLAHPPYTQSALISEWLGPVQERFFAHQCQTYNDVPLPAPDTYYQQRILPVLLDSFDRNSAAMTTHSGLFNQVILHCMTGVDCTDGTRQKAAALYEQYLAHPAVSPHIHNGLFGNYDGSPDWTTRAADNFLLLSSQDSDTAMMLSTDTLLTMLNPTPDTAWDNFYLLRAGENVSTAQISPVELFRHDFPVFLAAFNQQATQRRFGELIDIILSTEEHGELNQQFLAATNQKHSTVKLIDDASVSRLATIFDPLLPEGKLSPAHYQHILSAYHLTDATPQKQAETLFCLSTAFARYSSSAIFGTEHDSPPALRGYAEALMQKAWELSPAIFPSSEQFTEWSDRFHGLHGAFTCTSVVADSMQRHARKYFPSVLSSILPLAWA	soluble
SSQQIYGVKYGNVTFHVPSNQPLKEVLWKKQKDKVAELENSEFRAFSSFKNRVYLDTKSGSLTIYNLTSSDEDEYEMESPNITDSMKFFLYVGES	soluble
SSRSGTDPQQRQQASEADAAAATFRANDHQHIRYNPLQDEWVLVSAHRMKRPWQGQVEPQLLKTVPRHDPLNPLCPGAIRANGEVNPQYDSTFLFDNDFPALQPDAPSPGPSDHPLFQAKSARGVCKVMCFHPWSDVTLPLMSVPEIRAVVDAWASVTEELGAQYPWVQIFENKGAMMGCSNPHPHCQVWASSFLPDIAQREERSQQAYKSQHGEPLLMEYSRQELLRKERLVLTSEHWLVLVPFWATWPYQTLLLPRRHVRRLPELTPAERDDLASIMKKLLTKYDNLFETSFPYSMGWHGAPTGSEAGANWDHWQLHAHYYPPLLRSATVRKFMVGYEMLAQAQRDLTPEQAAERLRALPEVHYHLGQKDRETATIA	not soluble
SSVLRSMDKLPDLNRATVLLVSTEDALLQQLAESMLKDDCASELRVHLANSLPLPSNVNRPRIDLIVFVINLHSKYSLQKVEEFLQHVDSSFFLGKVCFLVTGAGQESHCSVHQNTVIKLAHTYRSPLFLCDLQKVESFRAAMARRLVRILQICAGHVPGVSALNLMSLLRSPENPPSKEL	soluble
STKTNVVEVLNKQVANWNVLYVKLHNYHWYVTGPHFFTLHEKFEEFYNEAGTYIDELAERILALEGKPLATMKEYLATSSVNEGTSKESAEEMVQTLVNDYSALIQELKEGMEVAGEAGDATSADMLLAIHTTLEQHVWMLSAFLK	soluble
